Measured values: paper doi:10.1101/2021.11.29.470334 (bioRxiv, 2021)

Target: the molecule itself
Test: cryo-EM structure

B1: Kir6.2 from Mus musculus (mmKir6.2) H175K mutant, as the Kir6.2 subunit of H175K_(cryoEM) (natural protein)
chain: LSRKGIIPEEYVLTRLAEDPAEPRYRTRERRARFVSKKGNCNVAHKNIREQGRFLQDVFTTLVDLKWPHTLLIFTMSFLCSWLLFAMVWWLIAFAHGDLAPGEGTNVPCVTSIHSFSSAFLFSIEVQVTIGFGGRMVTEECPLAILILIVQNIVGLMINAIMLGCIFMKTAQAKRRAETLIFSKHAVITLRHGRLCFMLRVGDLRKSMIISATIHMQVVRKTTSPEGEVVPLHQVDIPMENGVGGNGIFLVAPLIIYHVIDSNSPLYDLAPSDLHHHQDLEIIVILEGVVETTGITTQARTSYLADEILWGQRFVPIVAEEDGRYSVDYSKFGNTIKVPTPLCTARQLDEDRSLLDALTLASSRGPLRKRSVAVAKAKPKFSISPDSLS
B1: binds.
